Measurements published in a protein production outcome set (Wang et al. 2014).

Assay: label from the status in PepcDB records

Row | Sequence | protein production
1 | MTSAAQLTALLHLASPALPVGAFSYSQGLEAAVEARHVHDEASAARWIAEGLAVLAACEAPLWLLQYADWQAGRLDAVAERDGWFLATRETRELRLETAQMGWSLARLIAQMGWGAPAMRDALAARAAITFPTAFAAAAVALGIEARDGLTAYSFAWVENQVAAAVKAIPLGQAAGQRILFGLHAAVGQAAEDAARRAACHPPELSTFSPGLGVLSARHETQYSRLFRSLEHHHHHH | failed
2 | MGLKSNSAILPKALFCWSGGKDSAYCLHKVLLEKQFDVCYLLTTVNDTFKRISMHGVRETLLDKQTESIGIPCIKIRIKEGTNSEYEQLMETTLLKAKEEGITHVIFGDIFLEDLRTYRENNLDKVGLQAVFPLWKMDTGILIRDFIRKKFKTILCCINDGYLDETWAGREIDAVFIAQLPGHVDPCGENGEYHTFCYDGPLFQKAITVSTGEKIYKPLDYSLDDVCQSTVPTKGFWYCDLIPD | failed
3 | MQRFIDNSLESNWLWLTARICLALMFVASGLAKLFDYQASLEEMRAAGLEPAWLFNIATAVTLLAGSALVLLDRKLWLGAGALAVFLLLTILIVHTFWSKTGVEAKLAMFFALEHIAVIGGLIATAIASAQRQRLRQDVSVAATYQKA | failed
4 | MKQPFERILREICFMVKVEGRKVLRDFGITPAQFDILQKIYFEGPKRPGELSVLLGVAKSTVTGLVKRLEADGYLTRTPDPADRRAYFLVITRKGEEVIEKVIERRENFIEKITSDLGKEKSSKILDYLKELKGVMERNFSKQ | not failed
5 | MRRYRTCDNPPPSNGGRACGGPDSQIQRCNTDMCPVDGSWGSWHSWSQCSASCGGGEKTRKRLCDHPVPVKGGRPCPGDTTQVTRCNVQACPGGPQRARGSVIGNINDVEFGIAFLNATITDSPNSDTRIIRAKITNVPRSLGSAMRKIVSILNPIYWTTAKEIGEAVNGFTLTNAVFKRETQVEFATGEILQMSHIARGLDSDGSLLLDIVVSGYVLQLQSPAEVTVKDYTEDYIQTGPGQLYAYSTRLFTIDGISIPYTWNHTVFYDQAQGRMPFLVETLHASSVESDYNQIEETLGFKIHASISKGDRSNQCPSGFTLDSVGPFCADEDECAAGNPCSHSCHNAMGTYYCSCPKGLTIAADGRTCQDIDECALGRHTCHAGQDCDNTIGSYRCVVRCGSGFRRTSDGLSCQDINECQESSPCHQRCFNAIGSFHCGCEPGYQLKGRKCMDVNECRQNVCRPDQHCKNTRGGYKCIDLCPNGMTKAENGTCIDIDECKDGTHQCRYNQICENTRGSYRCVCPRGYRSQGVGRPCMDIDECENTDACQHECKNTFGSYQCICPPGYQLTHNGKTCQDIDECLEQNVHCGPNRMCFNMRGSYQCIDTPCPPNYQRDPVSGFCLKNCPPNDLECALSPYALEYKLVSLPFGIATNQDLIRLVAYTQDGVMHPRTTFLMVDEEQTVPFALRDENLKGVVYTTRPLREAETYRMRVRASSYSANGTIEYQTTFIVYIAVSAYPY | failed
6 | MIDALLNFDFIRYSLISGLLIGFIAPLIGAFIVVRRLSLIADALSHVTLGGISFGMFLLTIIPVFSVINPMWFGILFAVIGALLIEKLRTSFSNYQEIAIPIIMSAGIALSAIFISLADGFNQEIVGLLFGSISAVNISDLTTIIIITIIVLIFIVLFYKELFILSFDEEYSKVIGIPKWIQFLFIVIVAMVISASMRVVGILLVSALITLPIAISMRITKGFKQLIALSVILGELSVILGLIIAFYMNISPGGVIVVLLVLMLILTMIIQKLKIKFKKGVV | failed
7 | KAKPVATAPIPGTPWCVVWTGDERVFFYNPTTRLSMWDRPDDLIGRADVDKIIQEPPHKK | not failed
8 | MNLSSASSTEEKAVTTVLWGCELSQERRTWTFRPQLEGKQSCRLLLHTICLGEKAKEEMHRVEILPPANQEDKKMQPVTIASLQASVLPMVSMVGVQLSPPVTFQLRAGSGPVFLSGQERYEASDLTWEEEEEEEGEEEEEEEEDDEDEDADISLEEQSPVKQVKRLVPQKQASVAKKKKLEKEEEEIRASVRDKSPVKKAKATARAKKPGFKK | failed
9 | MIATTSQQSFNLLRTLAVQKASDFADEFYIYMLKDQEASLFLSSQQVHDRLHGSMSKWIADILTNTGDSLADLINHQKKIGQIHARIGIPVDLVERGARRLKWHLYEHIAQVADDKALCFDAMRFASISMDIAIEIMSKTYSQSHDLEHHHHHH | failed
10 | MDGMGTLTRYLEEAMARARYELIADEEPYYGEIPDLPGVWATGKSLKECEANLQAALEDWLLFLLSRGETPPPLGEVRIELPHGEAA | not failed
11 | MSRVAGLSSKKSRWLLQSLLDQQRHSLGTGFESANILLSPKYHLKDKDLRKIHKAARDGDAARVQQLLLGKHCVNDKDKKKRTALHIACAYGHPKVVMALVEGKCEVNATDSEECTSLVKAVQCQEEECATILLENNADPNIVDAQGNSALHYAVYYKNTSLAAKLLDHEVNIEATNKDGFTPFLLAVSENKLKIAKFLLMKNASIHAADNQKRTALMHAVSHDSTNLVRFVLEQGVDLFVKDAFGLTAIDYAADFKYNSKDQQSQELENMEKKYTAAQDSLEYTAAQDSLEHTAAQDSLEHTAAQDGLEYTAAQDSLEHTAAQDSLEHTAAQDSLEHTAAQDSLEYTAAQDSLEYTAAQDSLEYTAAQDSLEHTAAQDSLEYTAAQDSLEHTAAQDSLECTAASNSSRSHALITHVHLSAEPDGGVTSVEEPRRLDDRGDDQPQEAVTAPRTREKEQDMCTVVTGKEDEDESSWDSETNPPSPWGAPEALCAAALDHGDIGSPLTRENGHPRARQSPSVDSEEQDGGSGLNIKEEKTRDHEEWSGDFLMDRTSKESEPAAGDLLQVKDSWSLNDTDPNKGRSGGDPIEESRNATDLNHCKAVYIPPSESANSEIWKGMSSAKARLDNASKGPTVTRF | failed
12 | MRPKANQNHKLKVLLVFLLATLILIFIVRSTLTSSQEHQTPQETRSTRCSGACNKLPRSLAQALIHYSTSVITPQQTLKEIAVSSRVLGKKSPCNFLVFGLGHDSLMWSSLNYGGRTVFLEEDEAWIKQIKRRFPMLESYHVTYDSKVNQADNLIEVGKGPECTAIGDPRYSMCQLALKGLPAEIYETGWDLIMVDAPTGYYDEAPGRMTAIYTAGMMARNRKQGGETDVFVHDVNREIEDKFSKAFLCEGYMKKQEGRLRHFIIPSYRDGSESESNRPFCP | failed
13 | VFSSEDITETSPDKWLIDGDTPLDEVERAIGYELPEGDYETISGLLFDHANALLKTGDVIEIPLDFEPEDYLNNTSPTQRILRITVLEVERNVPVKLALALLE | not failed
14 | QPTAQQQLTKPAKITCANCKKPLQKGQTAYQRKGSAHLFCSTTCLSSFS | not failed
15 | MIVKCPICDGTGKKVVKYKTCPVCEGTGFIDEFSPKQHMKRVSKRATYDLDYGEIPCPKCKGTGKVPVYAKCDFCGGSGKVVKCDRCGAIIGKYPDFKDRTLCDKCLKEEEERKKGLRNVYVFDELATFYDVEPGKFYKGVVTRIEKYGAFINLNEQVRGLLRPRDMISLRLENLNVGDEIIVQAIDVRPEKREIDFKYIPLTTYDLVKYEKEVPLSQIKDISQNLVEMRDQVVHIRGEVVQIVQTPGPTVFTITDGTDFAWVAALEIAGLRAHPDVKVGDIVDVIGRVTIRDGRLQIERIKLQKLEGDEAEEIRKKIEEEIDRRAEPAKDIPFLVKSEVLERLRPKMADVAKRIRKAVLDGRPIIIRHHADTDGYCGGIALEKAILPIIDKFAIDVDAIWHFFKRRPSKAPFYELEDVTKDLVFSIEDALKFGQKLPLIVLIDNGSTDEDIPAISKAKAYGIEVIVIDHHFPGEVVDGKVEVDDYVDAHVNPYLVGGDSNLTAGVLGTEIARMINPDVEDEIKHIPGIAVVGDHAKGEEAEQYVKIALDRLNELSKKYGKGRTYDREYLEKIALCMDFEAFYLRFMDGKGIVDDILATNIKEFGRHEELIDILYEQAMKMVERQMKAVIPALKTEFLENGIILNTLDVEKYAHKFTFPAPGKTTGFAHDYIVQKYGEDKPIITLSYGPDFGVVRATDAVHEKYNFNLNLIVEQLMEEIPEASLDGGGHECAGSLKFVEGLRDKVIGRFIEIIKNMKPKEQ | failed
16 | GMEGLVMNTRRALFADWRVREAMLLAFDFDLINRTLTGGAEPRIASYFSNSALGMEAGAPATGRERALLEPFAADLLPGTLDGYALPATHGASNRGNLRKAARLLSEAGWRIEDGMLEGPGGTPFAFEILLPQGADAMIAASIIYRQALTRLGISARITTVDPAQFKQRVDNQDFDMTSFLRSLTLSPGNEQLLYWSAEDKDLPGSRNLMGMESPAAEAVIRHMLATDDAEEFQASVRALDRVLTAGRYVIPMWYSR | failed
17 | MKNKIILGCLAAAACEILFGLSFIFTKSITAQASGLALISWRFVTAFFFVNLYLLTKRQKVVINGRNIKPLIRIAILNPIIYFICETIGIRMTTASESGAFLACIPVVALIMSSLILKEWPSRWQVVGVATTLIGIIIAVFAAGGSTNFSLVGYFILGLAVVSYALYCVDVEKASQFTSFEITYFMLASGCLTFGLFALSHSFLAGNLKELLTLPWSNPKFAITILYQGLGCSVIGYILSNFAIATIGVNRTASFIGISTIISILAAVVFLGEPFSQLQILAGILVVLGVYVANKN | failed
18 | MTYCLGIVTQAGLIMAADSRTNAGIDYISTYQKLFDFSLPGDRTIVICCSGNLSITQAVLSQLRRDLAGHFDINLHSLPTMYDLARYLGQKVRQLQESDRDWLKQDGIDFYCNFLLGGQIRGGPIELYLVYGQGNCIHATPETPYLQIGETKYGKPILDRTISFDTSLDMAAKCALMSLDSTMRSNLSVGPPLNLARYERDSLVAPMLVQFPAGHEYLVEMRRRWEISLKDAFMRLPDIDWSRQLMRSLSPVSESVPLEHHHHHH | failed
19 | MRVRNRKGATELLEANPQYVVLNPLEAKAKWRDLFGNDNPIHVEVGSGKGAFVSGMAKQNPDINYIGIDIQKSVLSYALDKVLEVGVPNIKLLWVDGSDLTDYFEDGEIDRLYLNFSDPWPKKRHEKRRLTYKTFLDTFKRILPENGEIHFKTDNRGLFEYSLVSFSQYGMKLNGVWLDLHASDFEGNVMTEYEQKFSNKGQVIYRVEAEF | not failed
20 | MNLLPKTREEFAQTDYWNEFFKKRGEKAFEWYGEYLELCDQIHKYIKPADRILMLGCGNSKLSMDMYDTGFRDITNIDISPIAVKKMLELNAKSRPEMKFLQMDATAMTFPDESFSVSLDKGTLDALFADDEPETRAVVENYFKEILRTMRNGGRYVGISLLQEHILNFLLDFLPKHNCMLRIVHCLGVEQANKEKNADDALTLPVFVVVATKFKSLPMPVLEFGFGNDKMQRFTTVSELNSAVSSVQKAALVCNGLARSNIAGHNEVIMDLHRPSEQTPRYTIHILDKPPARGLGKYAAFIVPQGREVEWIFSTPAGRKKLQDSANFQRLAVVTLHRDQVYSTLDEVKQELADSIKNLSPAGLTDQIPYLSLGSDVGKRETLICGFSKISGDFRIEEVEANGKTLRRLIFLSNQFVVQSEALVKTVKIKGKKDRKKIDFGYLACQHHLYMSVGVQLATTVQHPKRDVEKDVLVVGLGGGGLCSFLHAALPQARITAVEIDPIMLEVAEQYFELKQDKRFHVVIDDGLDFVERCRNEDIHFDAVLFDVDSKDLSLGMSCPPQSFLATKILQHIKEIIGPKGLFMLNLVCRDESLRTEALNNLHKVFPAVCSYKLEEDINEIIYCANDEKYKTVEQWKKNMGTAGRGLNSAVKETKLASEDALEVAEFLSELKI | failed
21 | MNEYDEECLLTFLKKQSQLFDEPVAETMEEAEAFLEDCMAVVVDSLDEVREYFEESGADVENMLEHHHHHH | not failed
22 | MDARIVNALIGSVYETIRDVLGIEPKTGKPSTVSHIEIPHSLVTVIGITGGIEGSLIYSFSSETALKVVSAMMGGMEYNQLDELALSAIGELGNMTAGKLAMKLEHLGKHVDITPPTVVSGRDLKIKSFGVILKLPISVFSEEDFDLHLSVKSGG | not failed
